Data on 4 molecules can be found in PMC11575137 (BMC Biology, 2024).

In the experiment the target is biotinylated GTP-loaded KRAS (recombinant human KRAS loaded with GppCp) (human, UniProt P01116 1-189). Put plainly: BLI.
Sequence of biotinylated GTP-loaded KRAS (recombinant human KRAS loaded with GppCp) (P01116 whole entry): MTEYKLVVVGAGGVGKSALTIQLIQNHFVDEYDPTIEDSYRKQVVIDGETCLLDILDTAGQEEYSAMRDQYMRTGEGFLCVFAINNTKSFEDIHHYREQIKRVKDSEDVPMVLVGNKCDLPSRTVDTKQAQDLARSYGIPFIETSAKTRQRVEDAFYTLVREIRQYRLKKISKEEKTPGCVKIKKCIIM
On to DVKVFSEDGTSKVVE [peptide_(GRB10)], for which the Kd (as a rule, the equilibrium constant for the complex coming apart) was found to be 78 µM.

As to VVNVGGKTVK [peptide_(RAB4B)], the Kd was 84 µM.

IVRVFLPNKQRTVVP [peptide_(BRAF)]: the Kd is 150 µM.

For VIKVYSEDETSRALD [peptide_(GRB14)], the Kd is 87 µM.
